From US20090035322A1 (Regeneron, published 2009)

T1: mutant human CD20 #4 (N166D) (human, UniProt P11836 1-297)
T1 construct: Stably expressed on MG87 cells
T1 sequence: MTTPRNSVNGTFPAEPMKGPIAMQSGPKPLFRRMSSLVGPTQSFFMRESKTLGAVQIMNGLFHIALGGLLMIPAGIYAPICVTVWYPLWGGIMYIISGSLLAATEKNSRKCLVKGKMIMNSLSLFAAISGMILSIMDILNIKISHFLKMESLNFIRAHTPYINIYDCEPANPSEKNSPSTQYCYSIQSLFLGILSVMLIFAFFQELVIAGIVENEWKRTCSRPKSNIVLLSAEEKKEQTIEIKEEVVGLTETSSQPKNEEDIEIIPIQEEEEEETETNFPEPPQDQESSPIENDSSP

T2: mutant human CD20 #9 (N163D, N166D) (human, UniProt P11836 1-297)
T2 construct: Stably expressed on MG87 cells
T2 chain: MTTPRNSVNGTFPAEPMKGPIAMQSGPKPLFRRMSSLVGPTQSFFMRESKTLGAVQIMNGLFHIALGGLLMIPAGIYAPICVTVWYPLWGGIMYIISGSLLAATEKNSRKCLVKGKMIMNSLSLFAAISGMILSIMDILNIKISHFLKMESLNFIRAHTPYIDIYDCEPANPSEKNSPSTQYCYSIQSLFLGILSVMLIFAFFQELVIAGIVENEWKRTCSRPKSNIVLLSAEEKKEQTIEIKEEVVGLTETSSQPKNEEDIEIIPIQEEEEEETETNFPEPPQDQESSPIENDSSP

T3: mutant human CD20 #5 (P172S) (human, UniProt P11836 1-297)
T3 construct: Stably expressed on MG87 cells
T3 sequence: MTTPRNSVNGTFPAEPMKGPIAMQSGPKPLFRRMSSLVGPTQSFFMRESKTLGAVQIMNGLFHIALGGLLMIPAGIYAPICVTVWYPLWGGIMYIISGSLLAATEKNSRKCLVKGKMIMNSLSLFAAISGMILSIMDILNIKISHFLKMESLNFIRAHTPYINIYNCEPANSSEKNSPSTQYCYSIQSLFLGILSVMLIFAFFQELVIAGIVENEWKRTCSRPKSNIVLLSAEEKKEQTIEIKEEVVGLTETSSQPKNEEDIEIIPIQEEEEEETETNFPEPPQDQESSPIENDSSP

T4: mutant human CD20 #3 (A170S, P172S) (human, UniProt P11836 1-297)
T4 construct: Stably expressed on MG87 cells
T4 chain: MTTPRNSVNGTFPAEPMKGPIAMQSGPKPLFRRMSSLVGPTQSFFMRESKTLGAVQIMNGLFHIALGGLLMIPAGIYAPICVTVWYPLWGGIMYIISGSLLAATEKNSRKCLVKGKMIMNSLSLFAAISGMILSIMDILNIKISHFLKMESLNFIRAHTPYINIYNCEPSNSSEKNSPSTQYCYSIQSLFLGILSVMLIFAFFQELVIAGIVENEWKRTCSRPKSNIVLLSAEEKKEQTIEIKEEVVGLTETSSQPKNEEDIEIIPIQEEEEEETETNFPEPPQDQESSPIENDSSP

T5: mutant human CD20 #6 (Y77F, N166D) (human, UniProt P11836 1-297)
T5 construct: Stably expressed on MG87 cells
T5 chain: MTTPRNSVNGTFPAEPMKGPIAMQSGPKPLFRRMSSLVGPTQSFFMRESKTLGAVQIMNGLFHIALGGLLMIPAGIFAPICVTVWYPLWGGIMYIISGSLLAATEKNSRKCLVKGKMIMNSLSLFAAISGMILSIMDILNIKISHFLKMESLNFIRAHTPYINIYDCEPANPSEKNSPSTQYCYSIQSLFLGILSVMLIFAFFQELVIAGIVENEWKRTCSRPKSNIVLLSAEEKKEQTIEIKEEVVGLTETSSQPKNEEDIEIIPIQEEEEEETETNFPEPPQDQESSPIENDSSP

T6: mutant human CD20 #1 (Y77F) (human, UniProt P11836 1-297)
T6 construct: Human residues replaced by mouse residues; stably expressed on MG87 cells
T6 sequence: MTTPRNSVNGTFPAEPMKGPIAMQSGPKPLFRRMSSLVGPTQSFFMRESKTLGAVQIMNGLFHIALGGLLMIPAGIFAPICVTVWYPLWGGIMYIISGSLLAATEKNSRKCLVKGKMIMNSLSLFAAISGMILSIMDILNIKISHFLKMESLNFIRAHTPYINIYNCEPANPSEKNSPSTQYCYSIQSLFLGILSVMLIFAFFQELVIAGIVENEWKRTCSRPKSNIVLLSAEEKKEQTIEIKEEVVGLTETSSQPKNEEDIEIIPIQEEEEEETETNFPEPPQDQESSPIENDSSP

T7: human CD20 (human, UniProt P11836 1-297)
T7 construct: On human CD20-transfected MG87 cells, or endogenous on Daudi, RL and Raji cells; also called hCD20
T7 sequence: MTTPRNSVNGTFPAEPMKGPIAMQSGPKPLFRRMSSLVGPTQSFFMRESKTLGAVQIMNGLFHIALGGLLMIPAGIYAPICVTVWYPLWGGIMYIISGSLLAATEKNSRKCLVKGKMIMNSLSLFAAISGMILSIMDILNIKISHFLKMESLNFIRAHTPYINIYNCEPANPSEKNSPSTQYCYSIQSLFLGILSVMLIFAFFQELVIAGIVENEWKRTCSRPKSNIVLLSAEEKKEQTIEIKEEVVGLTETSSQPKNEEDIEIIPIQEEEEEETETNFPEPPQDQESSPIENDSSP


Legend:
[1] = target: T1, mutant human CD20 #4 (N166D); assay: FACS, mutant-hCD20 MG87 cells; 100%=best antibody
Protocol: (§1) Briefly, approximately 1×10⁶ cells from each stably transfected cell line expressing a mutant human CD20 were collected and incubated with each anti-human antibody, at 10 μg/ml, on ice for 1 hr, followed by incubation with APC-conjugated goat anti-human IgG (Jackson Immunolabs), at 10 μg/ml, on ice for 45 min. For each antibody, binding to each mutant human CD20 was assessed by flow cytometry.

[2] = target: T2, mutant human CD20 #9 (N163D, N166D); assay: FACS, mutant-hCD20 MG87 cells; 100%=best antibody
Protocol: as §1

[3] = target: T3, mutant human CD20 #5 (P172S); assay: FACS, mutant-hCD20 MG87 cells; 100%=best antibody
Protocol: as §1

[4] = target: T4, mutant human CD20 #3 (A170S, P172S); assay: FACS, mutant-hCD20 MG87 cells; 100%=best antibody
Protocol: as §1

[5] = target: T5, mutant human CD20 #6 (Y77F, N166D); assay: FACS, mutant-hCD20 MG87 cells; 100%=best antibody
Protocol: as §1

[6] = target: T6, mutant human CD20 #1 (Y77F); assay: FACS, mutant-hCD20 MG87 cells; 100%=best antibody
Protocol: as §1

human CD20 = target: T7, human CD20; assay: flow cytometry, hCD20-transfected MG87 cells
Protocol: Briefly, parental MG87 and human CD20-transfected MG87 cells were incubated for 30 min at 4° C. with each of the 15 human antibodies and the two control antibodies, followed by incubation with PE-conjugated anti-human IgG antibody. Binding was assessed by flow cytometry. Fluorescence intensities were compared with binding to the parental cell line and control isotype-matched sample.

| Binder | Percent of Binding to Mutant Human CD20 [1] | Percent of Binding to Mutant Human CD20 [2] | Percent of Binding to Mutant Human CD20 [3] | Percent of Binding to Mutant Human CD20 [4] | Percent of Binding to Mutant Human CD20 [5] | Percent of Binding to Mutant Human CD20 [6] | Total Mean Fluorescent Intensity (human CD20) |
| --- | --- | --- | --- | --- | --- | --- | --- |
| 3B9-10 (antibody, V domains shown, Fully human IgG, constant region not specified; also called 3B9-10N) VH: EVQLVESGGGLVQPGRSLRLSCVASGFTFNDYAMHWVRQAPGKGLEWVSVISWNSDSIGYADSVKGRFTISRDNAKNSLYLQMHSLRAEDTALYYCAKDNHYGSGSYYYYQYGMDVWGQGTTVTVSS VL: EIVMTQSPATLSVSPGERATLSCRASQSVSSNLAWYQQKPGQAPRLLIYGTSTRATGIPARFSGSGSGTEFTLTISSLQSEDFAVYYCQQYNNWPLTFGGGTKVEIK | 40% | 4% | 72% | 67% | 1% | 56% | 2990 |
| 6F6-1 (antibody, V domains shown, Fully human IgG, constant region not specified; also called 6F6-1N) VH: AVQLVESGGGLVQPGRSLRLSCAASGFTFRDYAMHWVRQGPGKGLEWVSGISWNTDYIGYADSVKGRFTISRDNAKNSLYLQMNSLRPEDTALYYCAKDARYGRDNYYGMDVWGQGTTVTVSS VL: EIVMTQSPATLSVSPGERATLSCRASQSVSHNLAWYQQKPGQAPRLLIYGAYTRATGIPDRFSGTGSGTEFTLTISSLQSEDFAVFYCQQYNNWPLTFGGGTKVEIK | 85% | 4% | 100% | 100% | 16% | 100% | 3390 |
| 9C3-8 (antibody, V domains shown, Fully human IgG, constant region not specified; also called 9C3-8N) VH: EVQLVESGGGLVQPGRSLRLSCAASGFSFHDYAMHWVRQAPGKGLEWVSGISWNSDSLGYADSVKGRFTISRDNAKNSLYLQMNSLRAEDTALYYCAKDNHYGSGSHYYYKYGMDVWGQGTTVTVSS VL: not shown | 22% | 3% | 76% | 84% | 0% | 36% | 2910 |
| 8G6-5 (antibody, V domains shown, Fully human IgG, constant region not specified; also called 8G6-5N) VH: EVQLAESGGDLVQSGRSLRLSCAASGITFHDYAMHWVRQPPGKGLEWVSGISWNSDYIGYADSVKGRFTISRDNAKKSLYLQMNSLRPDDTALYYCVKDFHYGSGSNYGMDVWGQGTTVTVSP VL: EIVMTQSPATLSMSPGERATLSCRASQSVSRNLAWYQQKVGQAPRLLISGASTRATGIPARFSGSGSGTEFTLTINSLQSEDFAVYYCQQSNDWPLTFGQGTRLEIK | 70% | 4% | 76% | 65% | 5% | 86% | 3410 |
| 7E1-13 (antibody, V domains shown, Fully human IgG, constant region not specified; also called 7E1-13N) VH: EVQLVESGGGLVQPGRSLRLSCTASGFTFGDFPMHWVRQAPGKGLEWVSGITWNSGSIVYADSVKGRFTISRDNAKNSLYLQMNSLRTEDTALYYCAKDSHYGSGNFYYYYYGMDVWGQGTTVTVSS VL: not shown | 84% | 4% | 85% | 95% | 1% | 94% | 3080 |

Now from value to binder:

| Percent of Binding to Mutant Human CD20 [1] | Percent of Binding to Mutant Human CD20 [2] | Percent of Binding to Mutant Human CD20 [3] | Percent of Binding to Mutant Human CD20 [4] | Percent of Binding to Mutant Human CD20 [5] | Percent of Binding to Mutant Human CD20 [6] | Total Mean Fluorescent Intensity (human CD20) | Binder |
| --- | --- | --- | --- | --- | --- | --- | --- |
| 8% | 3% | 57% | 57% | 1% | 14% | 2910 | 9E4-20 (antibody, V domains shown, Fully human IgG, constant region not specified; also called 9E4-20N) VH: EVQLVESGGGLVQPGRSLRLSCAASGFTFYDYAMHWVRQAPGKGLEWVSGISWNSDYIGYADSVKGRFTISRDNAKNSLYLQMNSLRAEDTALYYCAKDARYGRNNYYGMDVWGPGTTVTVSS VL: not shown |
| 5% | 4% | 66% | 70% | 0% | 67% | 3160 | 9D4-7 (antibody, V domains shown, Fully human IgG, constant region not specified; also called 9D4-7N) VH: EVQLVESGGGLVQPGRSLRLSCAASGFTFYDYAMHWVRQAPGKGLEWVSGISWNSDTIGYADSVKGRFTISRDNAKNSLYLQMNSLRAEDTALYYCTKDGSYGHFYSGLDVWGQGTTVTVSS VL: EIVLTQSPATLSLSPGERATLSCRASQSVSSYLAWYQQKPGQAPRLLIYVASNRATGIPARFSGSGSGTDFTLTISSLEPDDFAVYYCQQRYYWPLTFGGGTKVEIK |
| 60% | 4% | 69% | 55% | 1% | 79% | 3400 | 10F2-13 (antibody, V domains shown, Fully human IgG, constant region not specified; also called 10F2-13N; ab 10F2-13) VH: EEQLVESGGDLVQPGRSLRLSCAASGFTFHDYTMHWVRQAPGKGLEWVSGISWNSGSLGYADSVKGRFTISRDNAKKSLYLQMNSLRAEDTALYYCAKDPSYGSGSYHSYYGMDVWGQGTTVTVSS VL: EIVLTQSPATLSLSPGERATLSCWASQSISRYLVWYQQKCGQAPRLLIYEASKRATGIPVRFSGSGSGTDFTLTISSLESEDFAVYYCQQRFNWPLTFGGGTKVEIK |
